According to paper PMC10397247:

Tests used:
4H3133-AA = target: T1, 4H3133-AA; assay: two-hybrid library CCmax; settings: mean of both orientations;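 further: natural log of median RNA to DNA barcode read ratio; higher means stronger binding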
T1 chain: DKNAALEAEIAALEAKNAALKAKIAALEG

4H2611-AA = target: T2, 4H2611-AA; assay: two-hybrid library CCmax; settings: mean of both orientations;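 further: natural log of median RNA to DNA barcode read ratio; higher means stronger binding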
T2 chain: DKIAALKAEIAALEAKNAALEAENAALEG

4H1513-AA = target: T3, 4H1513-AA; assay: two-hybrid library CCmax; settings: mean of both orientations;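 further: natural log of median RNA to DNA barcode read ratio; higher means stronger binding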
T3 chain: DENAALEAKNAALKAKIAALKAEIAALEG

4H3413-AA = target: T4, 4H3413-AA; assay: two-hybrid library CCmax; settings: mean of both orientations;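 further: natural log of median RNA to DNA barcode read ratio; higher means stronger binding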
T4 chain: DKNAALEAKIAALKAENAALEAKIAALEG

4H1594-AA = target: T5, 4H1594-AA; assay: two-hybrid library CCmax; settings: mean of both orientations
T5 chain: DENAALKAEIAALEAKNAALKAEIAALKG

4H3631-AA = target: T6, 4H3631-AA; assay: two-hybrid library CCmax
T6 chain: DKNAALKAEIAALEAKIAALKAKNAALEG

4H3606-AA = target: T7, 4H3606-AA; assay: two-hybrid library CCmax; settings: mean of both orientations
T7 chain: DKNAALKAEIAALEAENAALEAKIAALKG

4H697-AA = target: T8, 4H697-AA; assay: two-hybrid library CCmax; settings: mean of both orientations
T8 chain: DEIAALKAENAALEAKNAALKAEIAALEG

4H1629-AA = target: T9, 4H1629-AA; assay: two-hybrid library CCmax; settings: mean of both orientations
T9 chain: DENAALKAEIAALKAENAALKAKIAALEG

4H2907-AA = target: T10, 4H2907-AA; assay: two-hybrid library CCmax; settings: mean of both orientations
T10 chain: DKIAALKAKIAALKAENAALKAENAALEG

4H1874-AA = target: T11, 4H1874-AA; assay: two-hybrid library CCmax; settings: mean of both orientations
T11 chain: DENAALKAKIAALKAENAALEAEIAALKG

4H32-AA = target: T12, 4H32-AA; assay: two-hybrid library CCmax; settings: mean of both orientations
T12 chain: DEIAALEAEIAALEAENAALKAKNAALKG

4H3718-AA = target: T13, 4H3718-AA; assay: two-hybrid library CCmax; settings: mean of both orientations
T13 chain: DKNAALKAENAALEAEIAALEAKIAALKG

4H340-AA = target: T14, 4H340-AA; assay: two-hybrid library CCmax; settings: mean of both orientations
T14 chain: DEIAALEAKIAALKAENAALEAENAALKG

4H3378-AA = target: T15, 4H3378-AA; assay: two-hybrid library CCmax
T15 chain: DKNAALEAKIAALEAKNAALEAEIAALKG

4H3162-AA = target: T16, 4H3162-AA; assay: two-hybrid library CCmax; settings: mean of both orientations
T16 chain: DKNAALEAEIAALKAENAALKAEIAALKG

4H1845-AA = target: T17, 4H1845-AA; assay: two-hybrid library CCmax; settings: mean of both orientations
T17 chain: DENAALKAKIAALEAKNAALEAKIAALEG

4H3588-AA = target: T18, 4H3588-AA; assay: two-hybrid library CCmax; settings: mean of both orientations
T18 chain: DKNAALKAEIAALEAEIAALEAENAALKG

4H384-AA = target: T19, 4H384-AA; assay: two-hybrid library CCmax; settings: mean of both orientations
T19 chain: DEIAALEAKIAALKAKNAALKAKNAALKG

4H3697-AA = target: T20, 4H3697-AA; assay: two-hybrid library CCmax; settings: mean of both orientations
T20 chain: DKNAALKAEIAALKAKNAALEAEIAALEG

4H2553-AA = target: T21, 4H2553-AA; assay: two-hybrid library CCmax; settings: mean of both orientations
T21 chain: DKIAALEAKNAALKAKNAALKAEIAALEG

4H2198-AA = target: T22, 4H2198-AA; assay: two-hybrid library CCmax; settings: mean of both orientations
T22 chain: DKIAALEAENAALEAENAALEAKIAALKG

4H2620-AA = target: T23, 4H2620-AA; assay: two-hybrid library CCmax; settings: mean of both orientations
T23 chain: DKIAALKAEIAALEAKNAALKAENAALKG

4H1388-AA = target: T24, 4H1388-AA; assay: two-hybrid library CCmax; settings: mean of both orientations
T24 chain: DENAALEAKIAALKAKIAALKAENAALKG

4H3056-AA = target: T25, 4H3056-AA; assay: two-hybrid library CCmax; settings: mean of both orientations
T25 chain: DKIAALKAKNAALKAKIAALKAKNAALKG

4H2648-AA = target: T26, 4H2648-AA; assay: two-hybrid library CCmax; settings: mean of both orientations
T26 chain: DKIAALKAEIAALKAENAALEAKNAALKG

4H1351-AA = target: T27, 4H1351-AA; assay: two-hybrid library CCmax
T27 chain: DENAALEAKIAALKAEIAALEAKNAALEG

4H3865-AA = target: T28, 4H3865-AA; assay: two-hybrid library CCmax; settings: mean of both orientations
T28 chain: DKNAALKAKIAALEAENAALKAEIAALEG

4H1401-AA = target: T29, 4H1401-AA; assay: two-hybrid library CCmax; settings: mean of both orientations
T29 chain: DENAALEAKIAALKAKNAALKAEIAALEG

4H982-AA = target: T30, 4H982-AA; assay: two-hybrid library CCmax; settings: mean of both orientations
T30 chain: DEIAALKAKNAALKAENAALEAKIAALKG

4H1544-bA = target: T31, 4H1544-bA; assay: two-hybrid library CCNG1
T31 chain: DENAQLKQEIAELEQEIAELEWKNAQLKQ

4H570-bA = target: T32, 4H570-bA; assay: two-hybrid library CCNG1
T32 chain: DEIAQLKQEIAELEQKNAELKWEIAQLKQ

4H906-bA = target: T33, 4H906-bA; assay: two-hybrid library CCNG1
T33 chain: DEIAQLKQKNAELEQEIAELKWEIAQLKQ

4H1985-bA = target: T34, 4H1985-bA; assay: two-hybrid library CCNG1
T34 chain: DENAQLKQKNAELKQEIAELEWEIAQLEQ

4H584-bA = target: T35, 4H584-bA; assay: two-hybrid library CCNG1
T35 chain: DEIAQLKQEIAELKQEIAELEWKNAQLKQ

4H3974-bA = target: T36, 4H3974-bA; assay: two-hybrid library CCNG1
T36 chain: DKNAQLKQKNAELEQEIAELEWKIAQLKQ

4H1449-bA = target: T37, 4H1449-bA; assay: two-hybrid library CCNG1
T37 chain: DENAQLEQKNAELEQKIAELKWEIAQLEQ

4H1629-bA = target: T38, 4H1629-bA; assay: two-hybrid library CCNG1
T38 chain: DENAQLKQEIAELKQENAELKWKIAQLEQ

4H3858-bA = target: T39, 4H3858-bA; assay: two-hybrid library CCNG1
T39 chain: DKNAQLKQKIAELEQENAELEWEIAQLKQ

4H1804-bA = target: T40, 4H1804-bA; assay: two-hybrid library CCNG1
T40 chain: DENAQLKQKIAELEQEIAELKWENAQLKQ

4H1899-bA = target: T41, 4H1899-bA; assay: two-hybrid library CCNG1
T41 chain: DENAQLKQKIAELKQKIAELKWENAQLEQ

4H3628-bA = target: T42, 4H3628-bA; assay: two-hybrid library CCNG1
T42 chain: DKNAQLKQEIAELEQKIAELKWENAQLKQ

4H3414-bA = target: T43, 4H3414-bA; assay: two-hybrid library CCNG1
T43 chain: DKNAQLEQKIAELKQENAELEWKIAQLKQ

4H3631-bA = target: T44, 4H3631-bA; assay: two-hybrid library CCNG1
T44 chain: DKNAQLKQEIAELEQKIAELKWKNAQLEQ

4H1710-bA = target: T45, 4H1710-bA; assay: two-hybrid library CCNG1
T45 chain: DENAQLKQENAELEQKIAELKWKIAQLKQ

4H3129-bA = target: T46, 4H3129-bA; assay: two-hybrid library CCNG1
T46 chain: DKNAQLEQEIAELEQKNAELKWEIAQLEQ

4H619-bA = target: T47, 4H619-bA; assay: two-hybrid library CCNG1
T47 chain: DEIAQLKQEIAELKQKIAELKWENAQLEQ

4H3638-bA = target: T48, 4H3638-bA; assay: two-hybrid library CCNG1
T48 chain: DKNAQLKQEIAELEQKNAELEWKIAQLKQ

4H3172-bA = target: T49, 4H3172-bA; assay: two-hybrid library CCNG1
T49 chain: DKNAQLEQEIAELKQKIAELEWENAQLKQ

4H3613-bA = target: T50, 4H3613-bA; assay: two-hybrid library CCNG1
T50 chain: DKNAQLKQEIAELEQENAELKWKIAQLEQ

4H3817-bA = target: T51, 4H3817-bA; assay: two-hybrid library CCNG1
T51 chain: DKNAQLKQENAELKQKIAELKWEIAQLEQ

4H850-bA = target: T52, 4H850-bA; assay: two-hybrid library CCNG1
T52 chain: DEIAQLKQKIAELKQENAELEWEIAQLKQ

DENAALEAKIAALKAEIAALEAKNAALEG [4H1351-AA]
interaction score (4H3133-AA): -0.555 | interaction score (4H2611-AA): -0.748 | interaction score (4H1513-AA): -0.583 | interaction score (4H3413-AA): -1.34 | interaction score (4H1594-AA): -1.24 | interaction score (4H3631-AA): 2.1 | interaction score (4H3606-AA): -1.64 | interaction score (4H697-AA): -1.65 | interaction score (4H1629-AA): -1.62 | interaction score (4H2907-AA): -1.52 | interaction score (4H1874-AA): -1.67 | interaction score (4H32-AA): -0.591 | interaction score (4H3718-AA): 0.664 | interaction score (4H340-AA): -1 | interaction score (4H3378-AA): -1.5 | interaction score (4H3162-AA): -1.42 | interaction score (4H1845-AA): -1.17 | interaction score (4H3588-AA): 0.934 | interaction score (4H384-AA): 0.76 | interaction score (4H3697-AA): -1.37 | interaction score (4H2553-AA): -1.95 | interaction score (4H2198-AA): -1.4 | interaction score (4H2620-AA): -0.325 | interaction score (4H1388-AA): -0.254 | interaction score (4H3056-AA): -1.54 | interaction score (4H2648-AA): -0.804 | interaction score (4H1351-AA): 0.323 | interaction score (4H3865-AA): -1.73 | interaction score (4H1401-AA): -1.25 | interaction score (4H982-AA): -0.516

DENAQLEQKNAELEQKIAELKWEIAQLEQ [4H1449-bA]
interaction score (4H1544-bA): -0.535 | interaction score (4H570-bA): -1.93 | interaction score (4H906-bA): -0.904 | interaction score (4H1985-bA): 0.787 | interaction score (4H584-bA): -1.3 | interaction score (4H3974-bA): 2.19 | interaction score (4H1449-bA): -0.613 | interaction score (4H1629-bA): -1.11 | interaction score (4H3858-bA): -0.848 | interaction score (4H1804-bA): -0.732 | interaction score (4H1899-bA): -0.25 | interaction score (4H3628-bA): -0.201 | interaction score (4H3414-bA): -1.03 | interaction score (4H3631-bA): 0.473 | interaction score (4H1710-bA): 0.786 | interaction score (4H3129-bA): -0.874 | interaction score (4H619-bA): -1.52 | interaction score (4H3638-bA): -1.83 | interaction score (4H3172-bA): -1.06 | interaction score (4H3613-bA): -0.891 | interaction score (4H3817-bA): -0.857 | interaction score (4H850-bA): -0.723
